Test results published in patent publication US20250152742A1, “COMPOSITIONS AND METHODS FOR NEUROLOGICAL DISEASES” (Trames Bio, Inc., priority 2022, published 2025).
Positions count from the first letter of the chain named. In names and notes the source's numbering stands.

Test system: engineered chimeric receptor SEQ ID NO: 33 and its mutants (human α7-nAChR ligand binding domain / human GlyRα1 ion pore domain) in Lenti-X 293T cells
Assay: YFP fluorescence quenching anion reporter plate reader assay (percent quench, EC50)
Type: cell-based
Details: for YFP fluorescence quenching using CNL001 (percent quench): receptor named in row; for YFP fluorescence quenching using Facinicline, 30 nM fac: ligand Facinicline 30 nM; for YFP fluorescence quenching using Facinicline, 300 nM fac: ligand Facinicline 300 nM; for YFP fluorescence quenching using Facinicline, 30 uM fac: ligand Facinicline 30 uM; for YFP fluorescence quenching using TC-6987, 1 uM tc6987: ligand TC-6987 1 uM; for YFP fluorescence quenching using TC-6987, 10 uM tc6987: ligand TC-6987 10 uM; for YFP fluorescence quenching using TC-6987, 500 uM tc6987: ligand TC-6987 500 uM; for YFP fluorescence quenching using Varenicline, 3 nM var: ligand Varenicline 3 nM; for YFP fluorescence quenching using Varenicline, 30 nM var: ligand Varenicline 30 nM; for YFP fluorescence quenching using Varenicline, 300 nM var: ligand Varenicline 300 nM; for YFP fluorescence quenching using Varenicline, 500 nM var: ligand Varenicline 500 nM; for YFP fluorescence quenching using Varenicline, 1 uM var: ligand Varenicline 1 uM
Outline: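 Percent quench compares mean YFP signal over the final 10 s with the 15 s baseline before ligand, added in iodide-containing extracellular solution (pH 7.2). Cells were LX293T carrying a YFP anion reporter, transiently transfected with the channel construct; plates were preincubated 30 min at 37 °C.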

[1] = 1 nM CNL001, first column so headed
[2] = 1 nM CNL001, second column so headed
[3] = 3 nM brd (TC-5619/Bradanicline)
[4] = 10 nM CNL001, first column so headed
[5] = 10 nM CNL001, second column so headed
[6] = 30 nM brd (TC-5619/Bradanicline)
[7] = 50 nM CNL001, first column so headed
[8] = 50 nM CNL001, second column so headed
[9] = 100 nM CNL001, first column so headed
[10] = 100 nM CNL001, second column so headed
[11] = 300 nM brd (TC-5619/Bradanicline)
[12] = 1 uM CNL001, first column so headed
[13] = 1 uM CNL001, second column so headed

B1: CODA945: engineered receptor: Q139E in SEQ ID NO: 33 (protein)
chain: MRCSPGGVWLALAASLLHVSLQGEFQRKLYKELVKNYNPLERPVANDSQPLTVYFSLSLLQIMDVDEKNQVLTTNIWLQMSWTDHYLQWNVSEYPGVKTVRFPDGQIWKPDILLYNSADERFDATFHTNVLVNSSGHCEYLPPGIFKSSCPMDLKNFPMDVQTCKLKFGSWSYGGWSLDLQMQEADISGYIPNGEWDLVGIPGKRSERFYECCKEPYPDVTFTVTMRRRMGYYLIQMYIPSLLIVILSWISFWINMDAAPARVGLGITTVLTMTTQSSGSRASLPKVSYVKAIDIWMAVCLLFVFSALLEYAAVNFVSRQHKELLRFRRKRRHHKSPMLNLFQEDEAGEGRFNFSAYGMGPACLQAKDGISVKGANNSNTTNPPPAPSKSPEEMRKLFIQRAKKIDKISRIGFPMAFLIFNMFYWIIYKIVRREDVHNQ
modifications: synthetic sequence of chimeric LGIC
YFP fluorescence quenching using CNL001 (percent quench) [1]: 6.65%
YFP fluorescence quenching using CNL001 (percent quench) [2]: 13.512%
YFP fluorescence quenching using TC-5619/Bradanicline (percent quench) [3]: 14.15%
YFP fluorescence quenching using CNL001 (percent quench) [4]: 78.678%
YFP fluorescence quenching using CNL001 (percent quench) [5]: 82.723%
YFP fluorescence quenching using TC-6683 (percent quench) (30 nM TC-6683): −26.47%
YFP fluorescence quenching using TC-5619/Bradanicline (percent quench) [6]: 78.18%
YFP fluorescence quenching using CNL001 (percent quench) [7]: 84.91%
YFP fluorescence quenching using CNL001 (percent quench) [8]: 84.849%
YFP fluorescence quenching using ABT-126 (percent quench) (50 nM abt (ABT-126)): −8.27%
YFP fluorescence quenching using CNL001 (percent quench) [9]: 85.046%
YFP fluorescence quenching using CNL001 (percent quench) [10]: 84.642%
YFP fluorescence quenching (percent quench) (100 nM CNL002): 60.5%
YFP fluorescence quenching using ABT-126 (percent quench) (100 nM abt (ABT-126)): 4.76%
YFP fluorescence quenching using AZD-0328 (percent quench) (100 nM azd0328): −5.79%
YFP fluorescence quenching using TC-6683 (percent quench) (300 nM TC-6683): −18.62%
YFP fluorescence quenching using ABT-126 (percent quench) (300 nM abt (ABT-126)): 30.88%
YFP fluorescence quenching using AZD-0328 (percent quench) (300 nM azd0328): 58.47%
YFP fluorescence quenching using TC-5619/Bradanicline (percent quench) [11]: 76.8%
YFP fluorescence quenching using CNL001 (percent quench) [12]: 85.493%
YFP fluorescence quenching using CNL001 (percent quench) [13]: 86.071%
YFP fluorescence quenching (percent quench) (1 uM CNL002): 75.41%
YFP fluorescence quenching using ABT-126 (percent quench) (1 uM abt (ABT-126)): 60.66%
YFP fluorescence quenching using TC-6683 (percent quench) (3 uM TC-6683): −13.39%
YFP fluorescence quenching (percent quench) (10 uM ach (acetylcholine)): −1.25%
YFP fluorescence quenching (percent quench) (30 uM CNL002): 77.46%
YFP fluorescence quenching using TC-6683 (percent quench) (30 uM TC-6683): −16.6%
YFP fluorescence quenching using AZD-0328 (percent quench) (30 uM azd0328): 66.57%
YFP fluorescence quenching using TC-6683 (percent quench) (100 uM TC-6683): −12.89%
YFP fluorescence quenching (percent quench) (100 uM ach (acetylcholine)): 71.21%
YFP fluorescence quenching (percent quench) (1 mM ach (acetylcholine)): 71.79%
YFP fluorescence quenching (percent quench) (3 mM ach (acetylcholine)): 76.04%
YFP fluorescence quenching using Facinicline, 30 nM fac: −7.16
YFP fluorescence quenching using Facinicline, 300 nM fac: 71.17
YFP fluorescence quenching using Facinicline, 30 uM fac: 72.14
YFP fluorescence quenching using TC-6987, 1 uM tc6987: −0.97
YFP fluorescence quenching using TC-6987, 10 uM tc6987: 21.53
YFP fluorescence quenching using TC-6987, 500 uM tc6987: 7.39
YFP fluorescence quenching using Varenicline, 3 nM var (first column): 8.207
YFP fluorescence quenching using Varenicline, 3 nM var (second column): 7.835
YFP fluorescence quenching using Varenicline, 30 nM var (first column): 9.509
YFP fluorescence quenching using Varenicline, 30 nM var (second column): 10.204
YFP fluorescence quenching using Varenicline, 300 nM var (first column): 9.818
YFP fluorescence quenching using Varenicline, 300 nM var (second column): 12.539
YFP fluorescence quenching using Varenicline, 500 nM var (first column): 16.762
YFP fluorescence quenching using Varenicline, 500 nM var (second column): 15.21
YFP fluorescence quenching using Varenicline, 1 uM var (first column): 48.292
YFP fluorescence quenching using Varenicline, 1 uM var (second column): 54.096

B2: CODA377: engineered receptor: S172D in SEQ ID NO: 33 (protein)
chain: B1 chain with E139Q, S172D
modifications: synthetic sequence of chimeric LGIC
YFP fluorescence quenching using CNL001 (percent quench) [1]: 67.544%
YFP fluorescence quenching using CNL001 (percent quench) [2]: 74.209%
YFP fluorescence quenching using TC-5619/Bradanicline (percent quench) (1 nM brd (TC-5619/Bradanicline)): 0.77%
YFP fluorescence quenching using TC-5619/Bradanicline (percent quench) [3]: −4.59%
YFP fluorescence quenching using CNL001 (percent quench) [4]: 74.346%
YFP fluorescence quenching using CNL001 (percent quench) [5]: 75.816%
YFP fluorescence quenching using TC-5619/Bradanicline (percent quench) (10 nM brd (TC-5619/Bradanicline)): 0.06%
YFP fluorescence quenching using TC-6683 (percent quench) (30 nM TC-6683): −20.23%
YFP fluorescence quenching using TC-5619/Bradanicline (percent quench) [6]: −10.48%
YFP fluorescence quenching using CNL001 (percent quench) [7]: 77.068%
YFP fluorescence quenching using CNL001 (percent quench) [8]: 76.99%
YFP fluorescence quenching using ABT-126 (percent quench) (50 nM abt (ABT-126)): −1.53%
YFP fluorescence quenching using CNL001 (percent quench) [9]: 79.352%
YFP fluorescence quenching using CNL001 (percent quench) [10]: 77.865%
YFP fluorescence quenching (percent quench) (100 nM CNL002): 59.35%
YFP fluorescence quenching using ABT-126 (percent quench) (100 nM abt (ABT-126)): 18.18%
YFP fluorescence quenching using AZD-0328 (percent quench) (100 nM azd0328): 65.04%
YFP fluorescence quenching using TC-5619/Bradanicline (percent quench) (100 nM brd (TC-5619/Bradanicline)): 0.25%
YFP fluorescence quenching using TC-6683 (percent quench) (300 nM TC-6683): −13.94%
YFP fluorescence quenching using ABT-126 (percent quench) (300 nM abt (ABT-126)): 59.15%
YFP fluorescence quenching using AZD-0328 (percent quench) (300 nM azd0328): 81.73%
YFP fluorescence quenching using TC-5619/Bradanicline (percent quench) [11]: −10.61%
YFP fluorescence quenching using CNL001 (percent quench) [12]: 80.272%
YFP fluorescence quenching using CNL001 (percent quench) [13]: 79.432%
YFP fluorescence quenching (percent quench) (1 uM CNL002): 79.26%
YFP fluorescence quenching using ABT-126 (percent quench) (1 uM abt (ABT-126)): 72.28%
YFP fluorescence quenching using TC-5619/Bradanicline (percent quench) (1 uM brd (TC-5619/Bradanicline)): 3.82%
YFP fluorescence quenching using TC-6683 (percent quench) (3 uM TC-6683): −14.17%
YFP fluorescence quenching (percent quench) (10 uM ach (acetylcholine)): −3.19%
YFP fluorescence quenching (percent quench) (30 uM CNL002): 79.96%
YFP fluorescence quenching using TC-6683 (percent quench) (30 uM TC-6683): 1.86%
YFP fluorescence quenching using AZD-0328 (percent quench) (30 uM azd0328): 82.3%
YFP fluorescence quenching using TC-6683 (percent quench) (100 uM TC-6683): 43.61%
YFP fluorescence quenching (percent quench) (100 uM ach (acetylcholine)): 0.07%
YFP fluorescence quenching (percent quench) (1 mM ach (acetylcholine)): 71.7%
YFP fluorescence quenching (percent quench) (3 mM ach (acetylcholine)): 76.95%
YFP fluorescence quenching using Facinicline, 30 nM fac: 4.93
YFP fluorescence quenching using Facinicline, 300 nM fac: 84.13
YFP fluorescence quenching using Facinicline, 10 uM fac (ligand Facinicline 10 uM): 66.96
YFP fluorescence quenching using Facinicline, 30 uM fac: 85.29
YFP fluorescence quenching using TC-6987, 1 uM tc6987: −9.74
YFP fluorescence quenching using TC-6987, 3 uM tc6987 (ligand TC-6987 3 uM): −14.04
YFP fluorescence quenching using TC-6987, 5 uM tc6987 (ligand TC-6987 5 uM): −0.95
YFP fluorescence quenching using TC-6987, 10 uM tc6987: −7.41
YFP fluorescence quenching using TC-6987, 30 uM tc6987 (ligand TC-6987 30 uM): −16.12
YFP fluorescence quenching using TC-6987, 50 uM tc6987 (ligand TC-6987 50 uM): −12.79
YFP fluorescence quenching using TC-6987, 100 uM tc6987 (ligand TC-6987 100 uM): −11.77
YFP fluorescence quenching using TC-6987, 300 uM tc6987 (ligand TC-6987 300 uM): −19.68
YFP fluorescence quenching using TC-6987, 500 uM tc6987: −17.02
YFP fluorescence quenching using Varenicline, 3 nM var (first column): −3.433
YFP fluorescence quenching using Varenicline, 3 nM var (second column): −5.737
YFP fluorescence quenching using Varenicline, 30 nM var (first column): −5.319
YFP fluorescence quenching using Varenicline, 30 nM var (second column): −6.175
YFP fluorescence quenching using Varenicline, 300 nM var (first column): −4.135
YFP fluorescence quenching using Varenicline, 300 nM var (second column): −8.614
YFP fluorescence quenching using Varenicline, 500 nM var (first column): −6.062
YFP fluorescence quenching using Varenicline, 500 nM var (second column): −6.125
YFP fluorescence quenching using Varenicline, 1 uM var (first column): −14.134
YFP fluorescence quenching using Varenicline, 1 uM var (second column): −15.373
